Experimental data taken from the DeepSol protein solubility set.

Test: soluble on expression in E. coli; label from the status in PepcDB or PDB records

Sequence	soluble on expression in E. coli
MGHHHHHHSHMQNADDFIKFLELEQHVEGGFYRSSYRSETAFDPSRQLWSSIYFLLRTGEVSHFHRLTADEMWYFHAGQSLTIYMISPEGELTTAQLGLDLAAGERPQFLVPKGCIFGSAMNQDGFSLVGCMVSPGFTFDDFELFSQEALLAMYPQHKAVVQKLSRPEVN	soluble
MSLRWLSLNTATVRKQGDLVAIIDACAKHGIRAIDPWRDQVASVGLDRAARAVRDAGLELSGYCRGGMFTSDASRRGEVRDDNRRCVDEAKALGAPCIVLVVGGLPQYSRPGSEPSKDIAAARGQVEEALADMLDYARQAGLPLAIEPLHPAYAADRACVNTTKQALDICDRLDPGRTGMLGVALDVYHIWWDPELMSQIARAGRDRLLAFHVCDWLVPTRDILNDRGMMGDGVIDIKSVRKAVEAQGFAGYSEIEIFSNDWWAKPMDEVLRTCITRHRTVVEGHHHHHH	not soluble
MPKLYVIPTPIGNLKDITLRALEVLKEVNYIACEDTRRTMILLNHYGIKGKKLISYYEPKEEKQIPKILKVLEKEDVALVTDAGMPAISDPGYRLIRKCIEKGIEIEVLPGPSAVITALVGSGLPPDRFLFVGFPPKKGTKGFFEELKSCEDTTVILFENPNRLLKTLKIIHEVFGNVQACVARELTKLHEEYIRGNLEEIIQELESREKIKGEVVVLFRILEHHHHHH	soluble
MGHHHHHHSHELIREVEMGPFKHTVDDGLDIRKAAFECMYTLLDSCLDRLDIFEFLNHVEDGLKDHYDIKMLTFLMLVRLSTLCPSAVLQRLDRLVEPLRATCTTKVKANSVKQEFEKQDELKRSAMRAVAALLTIPEAEKSPLMSEFQSQISSNPELAAIFESIQKDSSSTNLESMDTS	not soluble
MAHHHHHHMGADIKLLLIDFDGTLFVDKDIKVPSENIEAIKEAIEKGYMVSICTGRSKVGILSAFGEENLKKMNFYGMPGVYINGTIVYDQIGYTLLDETIETDVYAELISYLVENNLVNQTIFHRGESNYVTEDNKYSDFLQKMYSENRSIIIRHNEMLKYRTMNKLMIVLDPSESKTVIGNLKQKFKNKLTIFTTYNGHAEVNKLGHDKYTGINYLLKHYNISNDQVLVVGDAENDIAMLSHFKYSFAVANATNSAKSHAKCVLPLSHKEGAVAYLLKKVFDLKK	not soluble
MTDPSSSPIRPDMVEAARKFMLTPKVKETPFEEQRQFLLGKGVSEAEILEARASIPPEQLRSQIGTENMIPIGGHPQMMIAPKQNGIVSFAQSAVVLGSISYAGYRFVRSYVLPRFFDIPDPATEEIRQLQSQVDDLQNSIKFIMDSVSQTTQQLATQQSEISRALYSVANRDADLNRVESGISTIKSLLLSQHNFAPIVTPSVTSSIPSWQQSATPTSATSITTTTTSEAASGYATPPANFKESSLADELADIENIE	not soluble
MTTKRKETRESVCYREIKKKIRNGELKPGDRLIENTLSEQLGISRTPIRKAIGMLAADGYVEYNDFRGAFVRDSIINKERYFEMTEILGLFLKQAIQKIRTKKISFNKMRVVAKLVEIERDVEPSDPAVYFEYEKWFVNDLLTYMKNNYYLKISNDFFNNIQEFGDEEVIKIAQNACVKTIANIQRFIDALEAQNYDECMAIIDQVIDAHVLVAYR	not soluble
SDRPLSVHLNLGQKGNRKTSCPIKINQFEGHFMKLQADSNYLLSKEYEELKDVGRNQSCDIALLPENRGKNRYNNILPYDATRVKLSNVDDDPCSDYINASYIPGNNFRREYIVTQGPLPGTKDDFWKMVWEQNVHNIVMVTQCVEKGRVKCDHYWPADQDSLYYGDLILQMLSESVLPEWTIREFKICGEEQLDAHRLIRHFHYTVWPDHGVPETTQSLIQFVRTVRDYINRSPGAGPTVVHCSAGVGRTGTFIALDRILQQLDSKDSVDIYGAVHDLRLHRVHMVQTECQYVYLHQCVRDVLRARKLRSEQ	soluble
MILSDKDIIDYVTSKRIIIKPFNKDFVGPCSYDVTLGDEFIIYDDEVYDLSKELNYKRIKIKNSILVCPLNYNLTEEKINYFKEKYNVDYVVEGGVLGTTNEYIELPNDISAQYQGRSSLGRVFLTSHQTAGWIDAGFKGKITLQIVAFDKPVILYKNQRIGQLIFSKLLSPADVGYSERKTSKYAYQKSVMPSLIHLDNHKKD	soluble
MGLGSSKRKEEPPHKSEPKTVGRVKRAGARPDEMIAKYAEVLKTRGILPEYFLVHEAKSSQYIDEDGDVANEFYQETMSDGEKRRLCRLMKNLRPKGKERYAIPRLKHDIPVVIWEVQQPQET	not soluble
